Consider eight molecules from patent publication US20150158934A1 (UCL BUSINESS, published 2015).

Assay in all cases: SPR
On the technique in general: Surface plasmon resonance follows binding to a sensor surface in real time, without labels.

Assay [1] addresses T1, CA018 gp140/420 (A/G) (HIV-1).
T1 construct: also called gp120 of CA18

Assay [2] addresses T2, gp120IIIB (subgroup B) (HIV-1, UniProt P04578 33-511).
T2 construct: it is not tied to this reagent; also called IIIB gp120 (B)

Assay [3] addresses T3, gp140CN54 (subtype B'/C), gp140 envelope glycoprotein from the HIV-1 group M CRF07-B/C-clade isolate 97CN54 (HIV-1).
T3 construct: also called CN54 gp140/420 (C); CN54 gp140 Env

The target in assay [4] is T4, gp140UG37 (subtype A), gp140 envelope glycoprotein from the HIV-1 group M A-clade isolate 92UG037 (HIV-1).
T4 construct: also called UG037 gp140/420 (A); gp140-UG037

Assay [5] has as its target gp120IIIB (subgroup B) (HIV-1, UniProt P04578 33-511).

B1: L92E7 (VHH)
VHH: EVQLVESGGGLVQPGGSLRLSCAASGNIVSIDAAGWFRQAPGKQREPVATILTGGATNYADSVKGRFTISRDNAKNTVYLQMSSLKPEDTAVYYCYAPMIYYGGRYSDYWGQGTQVTVSS
notes: Purified by IMAC; tags not written into the chain
For the molecule B1, the Kd (commonly the equilibrium constant for the complex coming apart) in assay [1] came to 7 nM; in assay [2], 4.42 nM; in assay [3], 4.46 nM; in assay [4], 11.2 nM. Further, the koff – broadly, the first-order rate constant of dissociation – was determined as 0.00013 s⁻¹ in assay [1], 0.00077 s⁻¹ in assay [2], 0.00015 s⁻¹ in assay [3] and 0.00025 s⁻¹ in assay [4]. For the same molecule, the kon (as a rule, the second-order rate constant of association) in assay [1] was found to be 18000 M⁻¹ s⁻¹; in assay [2], 174000 M⁻¹ s⁻¹; in assay [3], 33200 M⁻¹ s⁻¹; in assay [4], 22200 M⁻¹ s⁻¹.

B2: mAb 2G12 (antibody, V domains shown)
VH: EVQLVESGGGLVKAGGSLILSCGVSNFRISAHTMNWVRRVPGGGLEWVASISTSSTYRDYADAVKGRFTVSRDDLEDFVYLQMHKMRVEDTAIYYCARKGSDRLSDNDPFDAWGPGTVVTVSP
VL: DVVMTQSPSTLSASVGDTITITCRASQSIETWLAWYQQKPGKAPKLLIYKASTLKTGVPSRFSGSGSGTEFTLTISGLQFDDFATYHCQHYAGYSATFGQGTRVEIKR
For B2, in assay [5], the Kd amounted to 1.91 nM, the koff was 0.000314 s⁻¹ and the kon came to 165000 M⁻¹ s⁻¹.

B3: L8Cj3 (VHH)
VHH: EVQLVESGGGLVQAGGFLRLSCELRGSIFNQYAMAWFRQAPGKEREFVAGMGAVPHYGEFVKGRFTISRDNAKSTVYLQMSSLKPEDTAIYFCARSKSTYISYNSNGYDYWGRGTQVTVSS
notes: 207 chosen because J3r is said to carry S82aN against L8Cj3; also called L8CjJ3; L9Cj3
In assay [1], B3 displayed a Kd of 8.86 nM, a koff of 3.98e-05 s⁻¹ and a kon of 4490 M⁻¹ s⁻¹. In assay [4], the Kd turned out to be 0.00702 nM, the koff came to 5.48e-08 s⁻¹ and the kon amounted to 7800 M⁻¹ s⁻¹.

B4: L91C2 (VHH)
VHH: EVQLVESGGGLVQPGGSLRLSCAASGFTLDGYAIGWFRQAPGKEREAISCITTAGTIYYADSVKGRVTISRDNAKNTVYLQMNSLKPEDTAVYLCAADGFDTPCVAGTDWGYDYEGQGTQVTVSS
notes: as for B1
On to B4, for which, in assay [2], the Kd stood at 2.01 nM, the koff was 0.00025 s⁻¹ and the kon is 122000 M⁻¹ s⁻¹.

B5: L91B5 (VHH)
VHH: EVQLVESGGGLVQPGGSLRLSCAASGATFDDYAIGWFRQAPGKEREGVSYIGCNDGATYYAGSVKGRFTISCDYAKNTVYLQMNSLKPEDTAVYYCAAAAQWATIRWIHEYDYNIWGQGTQVTVSS
notes: Purified by IMAC
For the molecule B5, the Kd in assay [1] came to 15.6 nM; in assay [3] it was 0.00127 nM; in assay [4], 0.174 nM.

B6: L91H9 (VHH)
VHH: EVQLVESGGGLVQAGGSLRLSCAVSGATFDDYAIGWFRQAPGKEREGVSYIGCNDGSTYYAGSVKGRFTISCDYAKNTVYLQMNSLKPEDTAVYYCAAAAQWATIRWIHEYDYDTWGQGTQVTVSS
notes: as for B1
As for B6, the Kd stood at 321 nM in assay [1], 4.11 nM in assay [2], 0.0625 nM in assay [3] and 0.0102 nM in assay [4]. For the same molecule, the koff in assay [1] is 0.428 s⁻¹; in assay [2], 0.000711 s⁻¹; in assay [3], 1.1e-06 s⁻¹; in assay [4], 9.81e-08 s⁻¹. The kon in assay [1] is 1.33e+06 M⁻¹ s⁻¹; in assay [2] it was 173000 M⁻¹ s⁻¹; in assay [3], 17600 M⁻¹ s⁻¹; in assay [4], 9610 M⁻¹ s⁻¹.

B7: L91F10 (VHH)
VHH: EVQLVESGGGLVQPGGSLTLSCVASGFTLDGYAIGWFRQAPGKEVESVSCITGRHGTIYYADSVMGRFTISRDNAKSTVYLQMNSLKPEDTAVYYCAADGFDTPCVAGTDWQYDYWGQGTQVTVSS
notes: as for B1
For B7, the Kd in assay [1] is 1.18 nM; in assay [3] it was 0.0771 nM; in assay [4], 3.98 nM. The koff came out at 6.94e-05 s⁻¹ in assay [1], 7.12e-07 s⁻¹ in assay [3] and 0.00012 s⁻¹ in assay [4]. Further, the kon in assay [1] came to 58800 M⁻¹ s⁻¹; in assay [3], 9230 M⁻¹ s⁻¹; in assay [4], 29300 M⁻¹ s⁻¹.

B8: L82B4F (VHH)
VHH: EVQLVESGGGLVQAGGSLRLSCAASGFTSDDYAIGWFRRAPGKEREGVSYISIEDGSTYSADSVKGRFTISSDYAKNTVYLQMNGLKPEDTAVYYCAAAILGDSVRWLQEYDYDYWGQGTQVTVSS
notes: Family member of L81H9; tags not written into the chain
In assay [1], B8 registered a Kd of 3500 nM, a koff of 0.00298 s⁻¹ and a kon of 850 M⁻¹ s⁻¹. Also, in assay [2], the Kd turned out to be 0.0315 nM, the koff was 0.000734 s⁻¹ and the kon was determined as 2.3e+07 M⁻¹ s⁻¹. In addition, in assay [4], the Kd stood at 0.0031 nM, the koff is 3.25e-08 s⁻¹ and the kon amounted to 10500 M⁻¹ s⁻¹.
